Target: PD-1-Fc (UniProt Q15116 25-167, limits assumed)
Experiment: cell-based or functional assay

Chain of PD-1-Fc (Q15116 25-167 limits assumed): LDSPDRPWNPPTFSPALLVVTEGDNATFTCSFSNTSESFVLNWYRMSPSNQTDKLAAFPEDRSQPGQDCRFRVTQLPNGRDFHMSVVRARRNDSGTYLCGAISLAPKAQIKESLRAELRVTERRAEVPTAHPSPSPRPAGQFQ

Binder	EC50 of IL-2 activity, HEK-Blue IL-2 reporter cells, PD-1 coated wells [nM]	EC50 of IL-2 activity, HEK-Blue IL-2 reporter cells, control wells (no PD-1) [nM]	EC50 of IL-2 activity, HEK-Blue IL-2 reporter cells, IgG1 coated wells (no PD-1) [nM]
AF4403 (other) heavy 1: QVQLVESGGGVVQPGRSLRLDCKASGITFSNSGMHWVRQAPGKGLEWVAVIWYDGSKRYYADSVKGRFTISRDNSKNTLFLQMNSLRAEDTAVYYCATNDDYWGQGTLVTVSSAKTTAPSVYPLAPVCGDTTGSSVTLGCLVKGYFPEPVTLTWNSGSLSSGVHTFPAVLQSDLYTLSSSVTVTSSTWPSQSITCNVAHPASSTKVDKKIEPRGPTIKPCPPCKCPAPNAAGGPSVFIFPPKIKDVLMISLSPIVTCVVVDVSEDDPDVQISWFVNNVEVHTAQTQTHREDYNSTLRVVSALPIQHQDWMSGKEFKCKVNNKDLGAPIERTISKPKGSVRAPQVYVLPPPEKEMTKKQVSLTCLVKDFMPEDIYVEWTNNGKTELNYKNTEPVLKSDGSYFMYSKLTVEKKNWVERNSYSCSVVHEGLHNHHTTKSFSRTPGGGGGSGGGGSGGGGSGGGGSQVQLVQSGAEVKKPGASVKVSCKASGDTFTRYYVHWVRQAPGQGLEWMGIINPSGGYASYAQKFQGRVTMTRDTSTSTVYMELSSLRSEDTAVYYCAAGLFIWGQGTLVTVSSASGGGGSGGGGSGGGGSHASDIQMTQSPSSLSASVGDRVTITCRASQSIGRYLAWYQQKPGKAPKLLIYSASNLETGVPSRFSGSGSGTDFTLTISSLQPEDFATYYCQQYNSFPVTFGPGTKVDIKGGGSGGGSHHHHHH heavy 2: QVQLVESGGGVVQPGRSLRLDCKASGITFSNSGMHWVRQAPGKGLEWVAVIWYDGSKRYYADSVKGRFTISRDNSKNTLFLQMNSLRAEDTAVYYCATNDDYWGQGTLVTVSSAKTTAPSVYPLAPVCGDTTGSSVTLGCLVKGYFPEPVTLTWNSGSLSSGVHTFPAVLQSDLYTLSSSVTVTSSTWPSQSITCNVAHPASSTKVDKKIEPRGPTIKPCPPCKCPAPNAAGGPSVFIFPPKIKDVLMISLSPIVTCVVVDVSEDDPDVQISWFVNNVEVHTAQTQTHREDYNSTLRVVSALPIQHQDWMSGKEFKCKVNNKDLGAPIERTISKPKGSVRAPQVYVLPPPEEEMTKKQVTLTCMVTDFMPEDIYVEWTNNGKTELNYKNTEPVLDSDGSYFMYSDLRVEKKNWVERNSYSCSVVHEGLHNHHTTESFSRTPGGGGGSGGGGSGGGGSAPTSSSTKKTQLQLEHLLLDLQMILNGINNYKNPKLTDMLTFEFYMPKKATELKHLQCLERELKPLEEVLNLAQSKNFHLRPRDLISNINVIVLELKGSETTFMCEYADETATIVEFLNRWITFCQSIISTLT light: EIVLTQSPATLSLSPGERATLSCRASQSVSSYLAWYQQKPGQAPRLLIYDASNRATGIPARFSGSGSGTDFTLTISSLEPEDFAVYYCQQSSNWPRTFGQGTKVEIKRADAAPTVSIFPPSSEQLTSGGASVVCFLNNFYPKDINVKWKIDGSERQNGVLNSWTDQDSKDSTYSMSSTLTLTKDEYERHNSYTCEATHKTSTSPIVKSFNRNEC	0.031	0.062	–
AF4404 (other) heavy 1: QVQLVESGGGVVQPGRSLRLDCKASGITFSNSGMHWVRQAPGKGLEWVAVIWYDGSKRYYADSVKGRFTISRDNSKNTLFLQMNSLRAEDTAVYYCATNDDYWGQGTLVTVSSAKTTAPSVYPLAPVCGDTTGSSVTLGCLVKGYFPEPVTLTWNSGSLSSGVHTFPAVLQSDLYTLSSSVTVTSSTWPSQSITCNVAHPASSTKVDKKIEPRGPTIKPCPPCKCPAPNAAGGPSVFIFPPKIKDVLMISLSPIVTCVVVDVSEDDPDVQISWFVNNVEVHTAQTQTHREDYNSTLRVVSALPIQHQDWMSGKEFKCKVNNKDLGAPIERTISKPKGSVRAPQVYVLPPPEKEMTKKQVSLTCLVKDFMPEDIYVEWTNNGKTELNYKNTEPVLKSDGSYFMYSKLTVEKKNWVERNSYSCSVVHEGLHNHHTTKSFSRTPGGGGGSGGGGSGGGGSGGGGSQVQLVQSGAEVKKPGASVKVSCKASGYTFTDYYMHWVRQAPGQGLEWMGIINPRAGYTSYALKFQGRVTMTRDTSTSTVYMELSSLRSEDTAVYYCTSGWDVWGQGTLVTVSSASGGGGSGGGGSGGGGSHASDIQMTQSPSSLSASVGDRVTITCRASQSISTWLAWYQQKPGKAPKLLIYAASSLDSGVPSRFSGSGSGTDFTLTISSLQPEDFATYYCQQSYSFPVTFGQGTKVEIKGGGSGGGSHHHHHH heavy 2: QVQLVESGGGVVQPGRSLRLDCKASGITFSNSGMHWVRQAPGKGLEWVAVIWYDGSKRYYADSVKGRFTISRDNSKNTLFLQMNSLRAEDTAVYYCATNDDYWGQGTLVTVSSAKTTAPSVYPLAPVCGDTTGSSVTLGCLVKGYFPEPVTLTWNSGSLSSGVHTFPAVLQSDLYTLSSSVTVTSSTWPSQSITCNVAHPASSTKVDKKIEPRGPTIKPCPPCKCPAPNAAGGPSVFIFPPKIKDVLMISLSPIVTCVVVDVSEDDPDVQISWFVNNVEVHTAQTQTHREDYNSTLRVVSALPIQHQDWMSGKEFKCKVNNKDLGAPIERTISKPKGSVRAPQVYVLPPPEEEMTKKQVTLTCMVTDFMPEDIYVEWTNNGKTELNYKNTEPVLDSDGSYFMYSDLRVEKKNWVERNSYSCSVVHEGLHNHHTTESFSRTPGGGGGSGGGGSGGGGSAPTSSSTKKTQLQLEHLLLDLQMILNGINNYKNPKLTDMLTFEFYMPKKATELKHLQCLERELKPLEEVLNLAQSKNFHLRPRDLISNINVIVLELKGSETTFMCEYADETATIVEFLNRWITFCQSIISTLT light: EIVLTQSPATLSLSPGERATLSCRASQSVSSYLAWYQQKPGQAPRLLIYDASNRATGIPARFSGSGSGTDFTLTISSLEPEDFAVYYCQQSSNWPRTFGQGTKVEIKRADAAPTVSIFPPSSEQLTSGGASVVCFLNNFYPKDINVKWKIDGSERQNGVLNSWTDQDSKDSTYSMSSTLTLTKDEYERHNSYTCEATHKTSTSPIVKSFNRNEC	0.026	0.064	–
AF4379 (other) heavy: APTSSSTKKTQLQLEHLLLDLQMILNGINNYKNPKLTDMLTFEFYMPKKATELKHLQCLERELKPLEEVLNLAQSKNFHLRPRDLISNINVIVLELKGSETTFMCEYADETATIVEFLNRWITFCQSIISTLTGGGGSGGGGSGGGGSGGGGSQVQLVQSGAEVKKPGASVKVSCKASGDTFTRYYVHWVRQAPGQGLEWMGIINPSGGYASYAQKFQGRVTMTRDTSTSTVYMELSSLRSEDTAVYYCAAGLFIWGQGTLVTVSSAKTTAPSVYPLAPVCGDTTGSSVTLGCLVKGYFPEPVTLTWNSGSLSSGVHTFPAVLQSDLYTLSSSVTVTSSTWPSQSITCNVAHPASSTKVDKKIEPRGPTIKPCPPCKCPAPNAAGGPSVFIFPPKIKDVLMISLSPIVTCVVVDVSEDDPDVQISWFVNNVEVHTAQTQTHREDYNSTLRVVSALPIQHQDWMSGKEFKCKVNNKDLGAPIERTISKPKGSVRAPQVYVLPPPEEEMTKKQVTLTCMVTDFMPEDIYVEWTNNGKTELNYKNTEPVLDSDGSYFMYSKLRVEKKNWVERNSYSCSVVHEGLHNHHTTKSFSRTPGK light: DIQMTQSPSSLSASVGDRVTITCRASQSIGRYLAWYQQKPGKAPKLLIYSASNLETGVPSRFSGSGSGTDFTLTISSLQPEDFATYYCQQYNSFPVTFGPGTKVDIKRADAAPTVSIFPPSSEQLTSGGASVVCFLNNFYPKDINVKWKIDGSERQNGVLNSWTDQDSKDSTYSMSSTLTLTKDEYERHNSYTCEATHKTSTSPIVKSFNRNEC	0.031	–	0.062
AF4389 (other) heavy 1: APTSSSTKKTQLQLEHLLLDLQMILNGINNYKNPKLTDMLTFEFYMPKKATELKHLQCLERELKPLEEVLNLAQSKNFHLRPRDLISNINVIVLELKGSETTFMCEYADETATIVEFLNRWITFCQSIISTLTGGGGSGGGGSGGGGSGGGGSQVQLVQSGAEVKKPGASVKVSCKASGHTFTRYYMHWVRQAPGQGLEWMGIINPSGGYATYAQKFQGRVTMTRDTSTSTVYMELSSLRSEDTAVYYCASGLFIWGQGTLVTVSSAKTTAPSVYPLAPVCGDTTGSSVTLGCLVKGYFPEPVTLTWNSGSLSSGVHTFPAVLQSDLYTLSSSVTVTSSTWPSQSITCNVAHPASSTKVDKKIEPRGPTIKPCPPCKCPAPNAAGGPSVFIFPPKIKDVLMISLSPIVTCVVVDVSEDDPDVQISWFVNNVEVHTAQTQTHREDYNSTLRVVSALPIQHQDWMSGKEFKCKVNNKDLGAPIERTISKPKGSVRAPQVYVLPPPEEEMTKKQVTLTCMVTDFMPEDIYVEWTNNGKTELNYKNTEPVLDSDGSYFMYSDLRVEKKNWVERNSYSCSVVHEGLHNHHTTESFSRTPGK heavy 2: QVQLVQSGAEVKKPGASVKVSCKASGHTFTRYYMHWVRQAPGQGLEWMGIINPSGGYATYAQKFQGRVTMTRDTSTSTVYMELSSLRSEDTAVYYCASGLFIWGQGTLVTVSSAKTTAPSVYPLAPVCGDTTGSSVTLGCLVKGYFPEPVTLTWNSGSLSSGVHTFPAVLQSDLYTLSSSVTVTSSTWPSQSITCNVAHPASSTKVDKKIEPRGPTIKPCPPCKCPAPNAAGGPSVFIFPPKIKDVLMISLSPIVTCVVVDVSEDDPDVQISWFVNNVEVHTAQTQTHREDYNSTLRVVSALPIQHQDWMSGKEFKCKVNNKDLGAPIERTISKPKGSVRAPQVYVLPPPEKEMTKKQVSLTCLVKDFMPEDIYVEWTNNGKTELNYKNTEPVLKSDGSYFMYSKLTVEKKNWVERNSYSCSVVHEGLHNHHTTKSFSRTPGGGGSGGGSHHHHHH light: DIQMTQSPSSLSASVGDRVTITCRASQSINSWLAWYQQKPGKAPKLLIYATSTLESGVPSRFSGSGSGTDFTLTISSLQPEDFATYYCQQYYRFPVTFGQGTKVEIKRADAAPTVSIFPPSSEQLTSGGASVVCFLNNFYPKDINVKWKIDGSERQNGVLNSWTDQDSKDSTYSMSSTLTLTKDEYERHNSYTCEATHKTSTSPIVKSFNRNEC	0.118	–	1.67

— patent US20240024501A1 (BONUM THERAPEUTICS, published 2024)
